In article PMC10453832, “Increased Actin Binding Is a Shared Molecular Consequence of Numerous SCA5 Mutations in β-III-Spectrin” (Cells, 2023):
Where a chain is given by its changes, count along the chain named. In names and notes the source's numbering stands.

B1: β-III-spectrin actin-binding domain Y272H (domain or fragment)
chain: MSSTLSPTDFDSLEIQGQYSDINNRWDLPDSDWDNDSSSARLFERSRIKALADEREAVQKKTFTKWVNSHLARVTCRVGDLYSDLRDGRNLLRLLEVLSGEILPKPTKGRMRIHCLENVDKALQFLKEQKVHLENMGSHDIVDGNHRLTLGLVWTIILRFQIQDISVETEDNKEKKSAKDALLLWCQMKTAGYPNVNVHNFTTSWRDGLAFNAIVHKHRPDLLDFESLKKCNAHYNLQNAFNLAEKELGLTKLLDPEDVNVDQPDEKSIITHVATYYHYFSKMK
notes: mutation found in a patient and a parent; also called Y272H ABD; source: Rosetta 2 (DE3) E. coli, purified (Ni-NTA, tag cleaved with Ulp1, second Ni-NTA)
B2: β-III-spectrin actin-binding domain, wild-type (domain or fragment)
chain: B1 chain with H272Y
notes: Construct pE-SUMO-ABD WT; also called ABD WT; wild-type ABD; source: Rosetta 2 (DE3) E. coli, purified (Ni-NTA, tag cleaved with Ulp1, second Ni-NTA)
B3: β-III-spectrin actin-binding domain T271I (domain or fragment)
chain: B1 chain with T271I, H272Y
notes: mutation found in a patient; also called T271I ABD; source: Rosetta 2 (DE3) E. coli, purified (Ni-NTA, tag cleaved with Ulp1, second Ni-NTA)
B4: β-III-spectrin actin-binding domain H278R (domain or fragment)
chain: B1 chain with H272Y, H278R
notes: mutation found in a patient; also called H278R ABD; source: Rosetta 2 (DE3) E. coli, purified (Ni-NTA, tag cleaved with Ulp1, second Ni-NTA)
B5: β-III-spectrin actin-binding domain T62I (domain or fragment)
chain: B1 chain with T62I, H272Y
notes: mutation found in a patient; also called T62I ABD; source: Rosetta 2 (DE3) E. coli, purified (Ni-NTA, tag cleaved with Ulp1, second Ni-NTA)
B6: β-III-spectrin actin-binding domain K65E (domain or fragment)
chain: B1 chain with K65E, H272Y
notes: mutation found in a patient; also called K65E ABD; source: Rosetta 2 (DE3) E. coli, purified (Ni-NTA, tag cleaved with Ulp1, second Ni-NTA)
B7: β-III-spectrin actin-binding domain D255G (domain or fragment)
chain: B1 chain with D255G, H272Y
notes: mutation found in a patient; also called D255G ABD; source: Rosetta 2 (DE3) E. coli, purified (Ni-NTA, tag cleaved with Ulp1, second Ni-NTA)
B8: β-III-spectrin actin-binding domain F160C (domain or fragment)
chain: B1 chain with F160C, H272Y
notes: mutation found in a patient; The methods paragraph prints F16C, everywhere else F160C; also called F160C ABD; F16C (as printed in the methods); source: Rosetta 2 (DE3) E. coli, purified (Ni-NTA, tag cleaved with Ulp1, second Ni-NTA)
B9: β-III-spectrin actin-binding domain K61E (domain or fragment)
chain: B1 chain with K61E, H272Y
notes: mutation found in a patient; also called K61E ABD; source: Rosetta 2 (DE3) E. coli, purified (Ni-NTA, tag cleaved with Ulp1, second Ni-NTA)
B10: β-III-spectrin actin-binding domain V58M (domain or fragment)
chain: B1 chain with V58M, H272Y
notes: mutation found in a patient; also called V58M ABD; source: Rosetta 2 (DE3) E. coli, purified (Ni-NTA, tag cleaved with Ulp1, second Ni-NTA)
B11: β-III-spectrin actin-binding domain L253P (domain or fragment)
chain: B1 chain with L253P, H272Y
notes: Construct pE-SUMO-ABD-L253P; Mutation found in SCA5 patients; also called L253P ABD; source: Rosetta 2 (DE3) E. coli, purified (Ni-NTA, tag cleaved with Ulp1, second Ni-NTA)

molecular target: T1, F-actin from rabbit skeletal muscle (rabbit, UniProt P68135 1-377); experiment: co-sedimentation; 2 µM ABD protein with increasing F-actin (3-120 µM) in F-buffer (10 mM Tris pH 7.5, 150 mM NaCl, 0.5 mM ATP, 2 mM MgCl2, 1 mM DTT); 30 min at room temperature; 50,000 RPM 30 min 25 °C; ABD left in supernatant quantified by SDS-PAGE and Coomassie; one-site fit with Bmax constrained to 1; conditions: both partners purified

Kd | Binder
15.5 µM | B1

molecular target: T1, F-actin from rabbit skeletal muscle; experiment: as above; conditions: both partners purified; remark: another data set of the same source

Kd | Binder
55.2 µM | B2
< 1 µM | B3
6.7 µM | B4
2.4 µM | B5
< 1 µM | B6
7.3 µM | B7
15.3 µM | B1
< 1 µM | B8
< 1 µM | B9
10.2 µM | B10
< 1 µM | B11
